The values that follow come from publication PMC2173256 (The Journal of Cell Biology, 2002).

Holding throughout (assay): co-IP
The target in test [1] is FLAG XIAP D214S N259D (UniProt P98170 1-497, D214S | N259D).
The target in test [2] is FLAG XIAP H343A (UniProt P98170 1-497, H343A).
For test [3], the target named is FLAG XIAP D148A E314S (UniProt P98170 1-497, D148A | E314S).
Test [4] deals with FLAG XIAP D214S (UniProt P98170 1-497, D214S).
Test [5] deals with FLAG XIAP E314S (UniProt P98170 1-497, E314S).
FLAG XIAP E314S, sequence (P98170 whole entry E314S): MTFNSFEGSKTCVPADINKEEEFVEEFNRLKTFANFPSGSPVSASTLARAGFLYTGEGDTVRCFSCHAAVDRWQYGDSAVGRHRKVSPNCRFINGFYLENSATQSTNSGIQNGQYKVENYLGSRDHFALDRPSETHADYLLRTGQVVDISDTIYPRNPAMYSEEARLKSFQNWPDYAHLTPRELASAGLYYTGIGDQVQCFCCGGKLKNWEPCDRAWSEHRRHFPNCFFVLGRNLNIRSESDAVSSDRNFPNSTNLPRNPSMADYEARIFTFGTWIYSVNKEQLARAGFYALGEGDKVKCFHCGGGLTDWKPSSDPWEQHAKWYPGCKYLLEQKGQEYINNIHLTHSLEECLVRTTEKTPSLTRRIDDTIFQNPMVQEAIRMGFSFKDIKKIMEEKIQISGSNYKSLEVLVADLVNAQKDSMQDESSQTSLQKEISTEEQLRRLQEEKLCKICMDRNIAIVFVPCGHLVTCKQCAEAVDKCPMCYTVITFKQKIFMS
In test [6] the target is FLAG XIAP D148A W310A E314S (UniProt P98170 1-497, D148A | W310A | E314S).
FLAG XIAP D148A W310A E314S, sequence (P98170 whole entry D148A/W310A/E314S): as the sequence (P98170 whole entry E314S) above, with D148A, W310A counted along it
Test [7] addresses FLAG XIAP D148A G306S (UniProt P98170 1-497, D148A | G306S).
Test [8] concerns the target FLAG XIAP V146A E314S (UniProt P98170 1-497, V146A | E314S).
Test [9] addresses FLAG XIAP D214S H343A (UniProt P98170 1-497, D214S | H343A).
For test [10], the target named is FLAG XIAP N259D E314S (UniProt P98170 1-497, N259D | E314S).
FLAG XIAP N259D E314S, sequence (P98170 whole entry N259D/E314S): as the sequence (P98170 whole entry E314S) above, with N259D counted along it
The target in test [11] is FLAG XIAP D148A D214S H343A (UniProt P98170 1-497, D148A | D214S | H343A).
FLAG XIAP D148A D214S H343A, sequence (P98170 whole entry D148A/D214S/H343A): as the sequence (P98170 whole entry E314S) above, with D148A, D214S, S314E, H343A counted along it
The target in test [12] is FLAG XIAP (X-linked mammalian inhibitor of apoptosis protein), wild-type, full length (UniProt P98170 1-497).
FLAG XIAP (X-linked mammalian inhibitor of apoptosis protein), wild-type, full length, sequence (P98170 whole entry): as the sequence (P98170 whole entry E314S) above, with S314E counted along it
Test [13] deals with FLAG XIAP N259D (UniProt P98170 1-497, N259D).
FLAG XIAP N259D, sequence (P98170 whole entry N259D): as the sequence (P98170 whole entry E314S) above, with N259D, S314E counted along it
In test [14] the target is FLAG XIAP W310A E314S (UniProt P98170 1-497, W310A | E314S).
FLAG XIAP W310A E314S, sequence (P98170 whole entry W310A/E314S): as the sequence (P98170 whole entry E314S) above, with W310A counted along it
Test [15] deals with FLAG XIAP T143A E314S (UniProt P98170 1-497, T143A | E314S).
FLAG XIAP T143A E314S, sequence (P98170 whole entry T143A/E314S): as the sequence (P98170 whole entry E314S) above, with T143A counted along it

FLAG XIAP H343A, sequence (P98170 whole entry H343A): as the sequence (P98170 whole entry E314S) above, with S314E, H343A counted along it
FLAG XIAP D214S, sequence (P98170 whole entry D214S): as the sequence (P98170 whole entry E314S) above, with D214S, S314E counted along it
FLAG XIAP D214S H343A, sequence (P98170 whole entry D214S/H343A): as the sequence (P98170 whole entry E314S) above, with D214S, S314E, H343A counted along it
FLAG XIAP D214S N259D, sequence (P98170 whole entry D214S/N259D): as the sequence (P98170 whole entry E314S) above, with D214S, N259D, S314E counted along it
FLAG XIAP D148A G306S, sequence (P98170 whole entry D148A/G306S): as the sequence (P98170 whole entry E314S) above, with D148A, G306S, S314E counted along it
FLAG XIAP V146A E314S, sequence (P98170 whole entry V146A/E314S): as the sequence (P98170 whole entry E314S) above, with V146A counted along it
FLAG XIAP D148A E314S, sequence (P98170 whole entry D148A/E314S): as the sequence (P98170 whole entry E314S) above, with D148A counted along it

B1: processed DIABLO (HA-tagged DIABLO) (natural protein)
chain: AVPIAQKSEPQSLSNEALMRRAVSLVTDSTSTFLSQTTYALIEAITEYTKAVYTLVSLYRQYTSLLGKMNSQEEDEVWQVIIGARVEMTSKQQEYLKLETTWMTAVGLSEMAAEAAYQTGADQASITARNHIQLVKSQVQEVRQLSQKAETKLAEAQTKELHQKAQEVSDEGADQEEEAYLRED
On to B1, for which the “DIABLO binding relative to wild-type XIAP (arbitrary value, 10 = 100%)” value is 9 arbitrary (10 = 100%) in test [1]; 10 arbitrary (10 = 100%) in test [2]; 5 arbitrary (10 = 100%) in test [3]; 9 arbitrary (10 = 100%) in test [4]; 5 arbitrary (10 = 100%) in test [5]; 4 arbitrary (10 = 100%) in test [6]. For the same molecule, the “DIABLO binding relative to wild-type XIAP (arbitrary value, 10 = 100%)” value in test [7] is 8 arbitrary (10 = 100%); in [8] it was 5 arbitrary (10 = 100%); in [9], 8 arbitrary (10 = 100%); in test [10] it was 5 arbitrary (10 = 100%); in [11], 9 arbitrary (10 = 100%); in test [12], 10 arbitrary (10 = 100%). Moreover, the “DIABLO binding relative to wild-type XIAP (arbitrary value, 10 = 100%)” value in test [13] was 10 arbitrary (10 = 100%); in [14], 4 arbitrary (10 = 100%); in test [15], 5 arbitrary (10 = 100%).
